One assay deals with SKOV3 cells. Kind of assay: Internalisation assay on SKOV3 cells. It is filed as cell-based, human. The note with it: for uptake (internalisation), secondary antibody detection: 4 h or 24 h at 37° C. How it is done: To screen internalization capacity and traffic to lysosomes of α-RAGE antibodies, all the primary antibodies used in the screening were conjugated to pHAb Amine Reactive Dye following manufacturer's instructions (Promega, UK, Cat. No. G983). This type of dye emits fluorescence when traffics to acidic environments (late endosome and lysosome). For this purpose, 1.5×10^4 SKOV3 cells/well were seeded in 8-well chamber slides (Ibidi) in 300 μl of stripped medium and cultured for 24 h in a humidified, 5% CO2 in air atmosphere incubator at 37° C. After culture, cells were washed in pre-warmed (37° C.) Dulbecco's phosphate buffered saline (DPBS) and slides placed on ice. Cells were treated with control medium or medium containing one of the α-RAGE antibodies conjugated to pH-dye at 10 μg/ml, and the 8-well chamber slides were incubated on ice for 30 minutes. Slides were then transferred to the incubator at 37° C. for 4 h or 24 h. After internalization time, cells were washed in DPBS, fixed in 4% paraformaldehyde for 20 min and permeabilized with 0.1% Triton X-100 (Sigma) for 10 minutes at 4° C. Cells were washed with PBS extensively between all steps, counterstained before imaging with Hoechst (Life Technologies™) and imaged using a LSM710 confocal fluorescence microscopy system (Zeiss, UK). Unconjugated α-RAGE antibodies were also used in the internalisation assay. In this case were visualized using Alexa-fluorophore secondary antibodies as described in the immunofluorescence method.

Assay [1] concerns RAGE. Kind of assay: Western blot on protein extracts from ovarian cancer cell lines (OCCL). The arrangement: species or system human. The note with it: whole-cell extracts of SKOV3, OVCAR3, A2780 and cisplatin-resistant lines; antibody 1 μg/mL. How it is done: Confluent cultures of cells were lysed in ice cold RIPA buffer (Sigma-Aldrich), whole-cell protein extracts were quantified with DC protein assay, 30 μg/lane were resolved by SDS-PAGE on TGX precast gels, transferred to mini PDVF membranes, blocked 1 h at RT in 5% Bovine Serum Albumin (BSA) in TBST (Tris Buffered Saline, 0.1% Tween-20) and incubated o/n at 4° C. in the same solution with 1 μg/mL of mA9 (sc-365154, Santa Cruz Biotechnology) antibody, mHA9 antibody or hHA9 antibody, or GAPDH (Santa Cruz Biotechnology) as loading control. Membranes were then washed with TBST and incubated 1 h at RT with 0.1 μg/mL of IgG horseradish peroxidase secondary antibody (GE Healthcare) or […] of Goat F(ab′) 2 Anti-Mouse IgG-F(ab′) 2 horseradish peroxidase secondary antibody (Abcam). Target proteins were visualised after incubation with Clarity Western ECL Substrate and imaged using a ChemiDoc System Bio-Rad Imager. Bands were quantified with ImageLab software. Unless stated all the materials specified above were obtained from Bio-Rad Laboratories.
RAGE, sequence (Q15109 23-317 limits assumed): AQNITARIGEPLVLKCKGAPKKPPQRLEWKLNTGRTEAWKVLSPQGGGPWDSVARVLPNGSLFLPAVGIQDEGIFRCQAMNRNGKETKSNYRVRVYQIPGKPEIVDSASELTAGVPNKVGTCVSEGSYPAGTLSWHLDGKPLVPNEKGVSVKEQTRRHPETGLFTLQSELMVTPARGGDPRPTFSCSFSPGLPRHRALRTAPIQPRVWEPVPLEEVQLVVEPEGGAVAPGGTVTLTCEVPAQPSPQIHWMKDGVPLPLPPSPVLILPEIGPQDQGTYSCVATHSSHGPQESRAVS
A general note: Immunoblotting shows a protein as a band on a membrane.

Assay [2] deals with RAGE (Homo sapiens, UniProt Q15109). The assay is described as follows: Western blot on protein extracts from human healthy tissues. The note with it: brain, breast, kidney, liver, lung, ovary, pancreas, spleen and uterus.
RAGE (Homo sapiens, UniProt Q15109), sequence (Q15109 23-404): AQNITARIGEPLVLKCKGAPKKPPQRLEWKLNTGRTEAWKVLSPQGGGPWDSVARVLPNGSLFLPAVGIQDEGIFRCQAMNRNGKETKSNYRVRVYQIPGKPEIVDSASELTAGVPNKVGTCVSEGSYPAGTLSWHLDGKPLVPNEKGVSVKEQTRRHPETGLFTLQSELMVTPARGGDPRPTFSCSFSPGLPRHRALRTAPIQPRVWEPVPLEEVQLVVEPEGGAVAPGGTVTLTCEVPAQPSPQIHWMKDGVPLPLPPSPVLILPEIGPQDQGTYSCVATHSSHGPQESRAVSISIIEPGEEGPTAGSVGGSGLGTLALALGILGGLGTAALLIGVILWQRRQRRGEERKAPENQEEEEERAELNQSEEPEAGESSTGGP
For assay [3], the target named is T1, RAGE recombinant protein (Human rRAGE) (Homo sapiens, UniProt Q15109).
T1 construct: Human rRAGE=Full-length RAGE recombinant protein from Merck; purchased Merck
T1 sequence (Q15109 23-404): as above
Kind of assay: Surface plasmon resonance binding kinetics (Biacore T200), recombinant protein analyte. The conditions noted are these: analyte RAGE recombinant protein, or RAGE synthetic peptide, not separated. How it is done: (§1) For on-rate and off-rate screening, Biacore™ T200 system (Cytiva, Uppsala, Sweden) was used to perform SPR analysis with 1×HBS-EP+ buffer (0.01M Hepes, 0.15M NaCl, 0.003M ethylenediaminetetraacetic acid, and 0.05% Surfactant P20, pH 7.4) (BR100669) used as sample and running buffer. The analysis temperature at the sensor chip surface and within the compartment was set to 25° C. Firstly, pH scouting with 10 mM sodium acetate buffer 4.0 (BR-1003-49), 10 mM sodium acetate buffer 4.5 (BR-1003-50), 10 mM sodium acetate buffer 5.0 (BR-1003-51) and 10 mM sodium acetate buffer 5.5 (BR-1003-52) was performed to identify the optimal pH required for ligand (α-RAGE antibodies) immobilization. This was followed by diluting the ligand with the appropriate Acetate buffer to at least 10 μg/mL. The ligand immobilization on the surface Series S Sensor Chip CM5 (29-1496-03, Cytiva) was performed using the Amine Coupling Kit (BR100050, Cytiva) containing 1-Etyhyl-3-(3-dimethylaminopropyl)-carbodiimide hydrochloride (EDC), N-Hydroxysuccinimide (NHS) and 1.0M ethanolamine-HcL PH 8.5 in accordance with the manufacturer's instructions. For each experimental run, the ligand was immobilized in flow cells 2 or 4 while flow cells 1 or 3 were left unmodified. Flow cells 2 and 4 were used as active flow cells while flow cells 1 and 3 were used as reference flow cells. Ligand immobilization levels were typically within the range 500-900 RU for the kinetic experiments and injected with a flow rate of 10 μL/min and contact time of 300 s. Analytes (RAGE recombinant protein and synthetic peptides) were injected for 120 s with a flow rate of 30 μL/min and dissociation time of 600 s run in order of increasing concentration over the reference and active flow cells using a multi-cycle kinetic approach with five-seven concentration range. Following each binding cycle, the surface was regenerated with a 30 s injection of 10 mM Glycine-HcL, pH 2.5 regeneration solution (BR-1003-56), removing the bound antibody with a contact time of 30 s, flow rate of 30 μL/min and a stabilization period of Os. […]
On the technique in general: SPR reads the build-up and loss of mass on a sensor chip optically.

The next assay concerns the target T2, RAGE synthetic peptide (Homo sapiens, UniProt Q15109).
T2 construct: purchased Biorad; host or cells: chemical synthesis
The assay is described as follows: Surface plasmon resonance binding kinetics (Biacore T200), synthetic peptide analyte. The note with it: chimeric antibodies and AB11451. How it is done:
as §1, with “cells.” for “cells. Ligand immobilization levels were typically within the range 500-900 RU for the kinetic experiments and injected with a flow rate of 10 μL/min and contact time of 300 s. Analytes (RAGE recombinant protein and synthetic peptides) were injected for 120 s with a flow rate of 30 μL/min and dissociation time of 600 s run in order of increasing concentration over the reference and active flow cells using a multi-cycle kinetic approach with five-seven concentration range. Following each binding cycle, the surface was regenerated with a 30 s injection of 10 mM Glycine-HcL, pH 2.5 regeneration solution (BR-1003-56), removing the bound antibody with a contact time of 30 s, flow rate of 30 μL/min and a stabilization period of Os.”

Entries after “also recorded” stand apart in the source; their conditions may differ.

T2 sequence (Q15109 39-65 limits assumed): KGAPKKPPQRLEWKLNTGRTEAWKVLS

B1: hHA9: chimeric humanised format of anti-RAGE antibody clone HA9 (antibody, V domains shown)
VH: EVKLVETGGGLVQPGRPMKLSCVASGFTLSDHWMNWVRQSPEKGLEWVAQIRNRPYKFEKYYSDSVKGRFTISRDDSKNSVYLQMNNLRAEDMGIYYCSSYRYGLAYWGQGTLVTVST
VL: DNLLTQSPAILSVSPGERVSFSCRASQTIDTRIHWYQQRKNGSPRLLIRYISESLSGIPSRFSGSGSGTEFTLTINSVESEDIADYYCQQTESWPITFGSGTKLEIK
Consider B1, for which the “uptake (internalisation), secondary antibody detection” value with SKOV3 cells (compared with other clones and AB11451, listed as chimeric HA9) was “highest uptake”; in the assay on SKOV3 cells (compared with other clones and AB11451, listed as chimeric-HA9) it was “better uptake”. The “uptake of pH-dye conjugated antibody” value in the assay with SKOV3 cells (pHAb dye conjugate 10 μg/ml, 4 h or 24 h) is “highest uptake and traffics efficiently to acidic endosomes”. Besides, the “RAGE isoform detected by western blot” value with RAGE [1] is reported as “able to detect expression levels of full-length transmembrane RAGE; also recorded: detection of high levels of full-length RAGE isoform”. In the assay with RAGE [2], the “RAGE expression detected in human healthy tissues” value is “absent or very low expression”. In addition, the “affinity interaction by SPR (summary statement)” value in assay [3] is on record as “weaker affinity”; in assay [3] (listed as chimeric-HA9), “weaker affinity than AB11451 antibody or the commercial antibodies”. The “binding affinity to the new synthetic peptides” value with RAGE synthetic peptide is recorded as “the affinity is weak”.

Values taken from patent US20250163149A1, “ANTI-RAGE ANTIBODY” (Swansea University, priority 2022, published 2025).
